In the DeepSol protein solubility set:

Assay: soluble on expression in E. coli; label from the status in PepcDB or PDB records

Row | Sequence | soluble on expression in E. coli
1 | MSLEQNPVDLDSLTLVNEDELETSVALDNMARRARNGCNEQLKVLCHRIEYLFESKREVNEHNNPLEPRQLVACFSEGLEKLSLDIKARLIILKLFEREVMAETGYLVSEANKVLIDAGVLPEMKSAPIAPAHKPGSRSLANQGNDNVMPTAGNAGVHSNDQVFGLLQELLVTMRGMQARPGDGASDVASEAPMAVMQNGVPYMNGAPLANAASVHQVNSDDLLGVLNRLQRVERSLGEDEGEERADLKTDLSELLDNEHGEAIHALDQADDDVINLVALLFDFILDDEGLPSDIKALLGRLQIPLLKVAIMDKAFFNNDNHEARLLLNMLARAGSQWDPHLGIQDDLYQRINHAVHRIIDDYEDDASLFSSLLQEFQQFFDSQKTRSDRVEQRVREAEEGKARAEQARREVVTVLDNRMAGRQLPDVVVRLLRQGWQQALYLTWLHEGENSPLWQQQVKVVDAVVWSVLEHRDQDALEKLKTLSPKLLKTLHEGLTKINHDAMETKQLLVKFRDVHHRLLKGLQTERVAVEPELPAQRAQPETAPELPENHFLVKKCSQLAPGQWIEIQDNDEPRRAKLAANIRAGVKIVFTNRRGIKVQEYSAYTLAVALHNGAVKLIDEGALFDRALEAVIGDLRRMQGNEGHHHHHH | not soluble
2 | MTTQTIDSAPHATWFVGASYGGTDDQMPRFLAEGIWENGYDDKLLEVVRSMRPGERIAIKSSYTRKHGLPFDSRGRAVSVMGIKAVGTITENLNDGKRVKVDWAKVEPVREWYFYTHRATIWRVLPGEWMNDALIAFAFDGKPQDVDRFRNEPFWRERYGTTSPEKQRFEWTDFYEAVAEKLLAHADDRTPLIEGIHEIASRVPGLTYLQDKFPDGTSGPLRDICPFTTMGTFNRSMTDANRKTLAGELAKLLGVTVPVPPSFEGIPVLNNQRSWFFAYADKRGAGDIDALWKVFVAASKMVDGDQLDTRDAFIRAYDEATQVWGVAWNLSTGLYWAHPWEFLTLDSQSRHYINKRLGLNVAISGQQGPCDGRAYLKLLDDLRSRFGEDGYPVHSFPDLSLASWMYKDPVDEPVPAGDIGTNAGAEQETEGEVREAFQVAAPIVPYSVEDILKDGCFLERAEIDRLLDRLRTKKNLILQGPPGTGKTWLAKRLAFALMGQKDDSKVRAVQFHPNLSYEDFVRGWRPTGEGKLSLADGVFMEAIKAASKDPSSKFVVVIEEINRGNPAQIFGELLTLLEAGKRTPNEALELCYPDADGKRRPVHIPENLYVVGTMNIADRSLALVDLALRRRFAFVGLEPRLGQVWRDWVVKECAVDPGLVADIERRIAELNDQIAADARLGKQFRIGHSYVTPAHRLEAGDTKKWFLQVVETEIGPLLDEYWFDAPDEAQKAIARLTQGWLEHHHHHH | soluble
3 | MRRPPIVRCLFFLNDTIVLELEKTRVISERSNEEVIVVIRKTVKGTDGREYTFVAKEGTFEKLTGLGTTIRGHIPGTDSPFYGILEDGEEGLRAWIMTFRVVNRVPIDSETEEELVRLFLPLVERRRIDRSILLYVE | not soluble
4 | MFLTRSEYDRGVSTFSPEGRLFQVEYSLEAIKLGSTAIGIATKEGVVLGVEKRATSPLLESDSIEKIVEIDRHIGCAMSGLTADARSMIEHARTAAVTHNLYYDEDINVESLTQSVCDLALRFGEGASGEERLMSRPFGVALLIAGHDADDGYQLFHAEPSGTFYRYNAKAIGSGSEGAQAELLNEWHSSLTLKEAELLVLKILKQVMEEKLDENNAQLSCITKQDGFKIYDNEKTAELIKELKEKEAAESPEEADVEMS | soluble
5 | MAAQSDRYDAVLVQYGLRPVRMEQRGKAVKVYTNRGVFALKPLESEQEAAAVWQSLQHGGPRCLPLYLTRRRSLFATEGGRLYYLQAWHDGESKVEKDAADAFFRELARLHRATVRTIEVSEEEAAAYRKQKKDEWQRARTVWEERIERYEAAWYMSPFQLQCCTYFHEVMRAYSFAEERLDVWEETLKETKQWRIAWVHGKARLSHYIPPYWISWERAHWNSPLFDVIAALRFHVQTMPPLGREWLEGMEEYEKELPLSDGERAFLYSHLAEPRGFVRCLERYEAASRNERNEREYVAALQRRYLAFKNMEALVMHLVQRDAARQQEEAVDNEPPSDESSNG | not soluble
6 | MGSDKIHHHHHHMKTQSQDRWFIWQLSEELEAKIRYREYGPPDSPFTPLLFIHGYGGMIEHWNDNIPSFDDRYRIYAMDLIGFGQSGKPNVRYSLALFAAQIKAFMHLKKLEKVTLVGHSMGAASSIIYAHHNPDSVRALVLANPSGLYGDSMDGVAKIFFGLVGSPLIGEMLFAAFANPVGVSQSLTPTYYNQKKVDLNLINQFSRPLQDRGAIFSYLSPSKRPHDFMLDGLKPCNYKGDAWLLWGAEDTALPPHKIIPEFQELLPQAGAYIIPKAGHCIHHDAHETFNNRLAQLLQRLE | not soluble
7 | MEKNDIFVVIPAYNEEKMIKNTLINLKSHGYENIIVVDDGSRDNTSKIAISEEVIVCKHIINRGLGGALKTGLKCAVKYNPKVIVTFDADGQHDPEDIFKVSEPILEDSFDVVVGSRLIDENELKNMPLIKKIGNWGLNFITYLMGGRMVTDSQGGLRAFSYDAAEIVSKQLKSNRYEVSSEFIVLFKKNNLKFKEVPIKTIYTEYSMARGTNVITGFKILFKLLIQKLILEHHHHHH | soluble
8 | MGHHHHHHSHMQPAKEVTKASDGSLLGDLGHTPLSKKEGIKWQRPRLSRQALMRCCLVKWILSSTAPQGSDSSDSELELSTVRHQPEGLDQLQAQTKFTKKELQSLYRGFKNECPTGLVDEDTFKLIYAQFFPQGDATTYAHFLFNAFDADGNGAIHFEDFVVGLSILLRGTVHEKLKWAFNLYDINKDGYITKEEMLAIMKSIYDMMGRHTYPILREDAPAEHVERFFEKMDRNQDGVVTIEEFLEACQKDENIMSSMQLFENVI | not soluble
9 | MIKKDYAQIKETLYTETLENGLKVYLLPKNDFQKTYGLFTTDYGSIDNTFVPIGQEEMIEVPDGIAHFLEHKMFEKEDGDVFQKFGQQGASANAFTSFTKTSYLFSTTDQVTQNLETLLDFVQSPYFTKETVEKEKGIIGQEIQMYLDDPNWRLFFGILGNLYPKHPLHIDIAGTVASIAEITAEDLYTCYNTFYHPSNMTLFVVGKMDPEALMAFIRENQAAKEFPAAQPIRRHFPEETAADIVKESAIEMTVTRAKVLVGLKGLDEVPTTGRDLMKYQVTVNLLLQLLFGNTSQNYLALYDEGLLDDSFSYDFNLDRSFHFADIGGDSEQPEVLAERIEAILLSATTSPELTEENLSLLKKKMIGKYFQSLNSLEYIANQFSQSLFGETTLFDKIEVIESIQLADVRQVAETFIREEGLSRFYMYPKGETEQ | not soluble
10 | MSLTSKPYIMGVDIGTSSTKAVLFNQRGEVIFRQATHYELITDETGKAEESPTEIFDAVLTSIQAVMKNINTEELAGISFSSAMHSLIMVGSNGELLTECITWADGRSSETLEKVKRDNYLFQLYEATGTPIHPMSPFAKICWLKEEKPTLFKRTEKFVDIKSYILYRLFGVWVMDESLASGTGLYNIMEHDWEFEAMEIVKLTPDFLPKVVPETYQLAGVKKEYAELMGIPENLPFIIGGSDGALANIGIQATGQNDVTITVGTSGAVRKLTDQFQIDSRGRTFCYGAGDGYFIAGGAVNNGGKVVEWGLQQFGSEAEISRRDFASFIAKIEEVPPGAAGLLFQPYLLGERAPFWTNDIRGGFVGLTINHTKAHFIRAILEGVAFNLAEVYEAVSAPDDIIYVTGGISAHDAWCKLLADILNREIRVPHTIEGSSLGAAIIGMRSLGILKDLNLKHTLPIKAVYHPSENVLKYAELRLIFKQVTTQLMSSYSQLNSWQKKFDINSEGHHHHHH | soluble
11 | VDQVFVVGHKNLDMDALGSAVGMQLFASNVIENSYALYDEEQMSPDIERAVSFIEKEGVTKLLSVKDAMGMVTNRSLLILVDHSKTALTLSKEFYDLFTQTIVIDHHRRDQDFPDNAVITYIESGASSASELVTELIQFQNSKKNRLSRMQASVLMAGMMLDTKNFTSRVTSRTFDVASYLRTRGSDSIAIQEIAATDF | not soluble
12 | MNTICKMRDIYKALSIFETAFEEVYGISLNEAMVLCALREAGKEITSTAIAERTEMAPSHTSKVIRAVEDKGLIRRALGEVDKRQMYFSLTEAGKKRLNELDLDKVEIPEMLKPLI | not soluble
13 | MLAHIKITHFAIVKSLELDLTKGMTTITGETGAGKSIAIDALGLCLGDRAEASMVRQGEEKAEITVLFTLENNINAKRWLEDNELYDGNDCILRRVITKEGRSRGFINGSPVPAAQLKTLGHLLINIHGQHAHHELMKPEYQLNMLDQYAGHVSLLNKTRSRYQAWRQA | not soluble
14 | MLFISSDNQKEKRGMAGNKKINRREEILQALAEMLESNEGASRITTAKLAKQVGVSEAALYRHFPSKARMFEGLIEFIEESLMSRINRIFDEEKDTLNRIRLVMQLLLAFAERNPGLTRILSGHALMFENERLRDRINQLFERIETSLRQILRERKLREGKSFPVDENILAAQLLGQVEGSLNRFVRSDFKYLPTANFDEYWALLSAQIK | soluble
15 | MPKTQGLSPESLISQFARCEEGWCVQYHDVILASAFQPVISITHKRVVGYEALVRATDANNAQISPDTLFARAQARGETILLDRLTRCLHVANFSEQDTGSCWLFLNVLPQMFDAGIAPSVFIEALCAHFALPPTRVVLEVIEQPSRNEPALARTLDMIQHGDFLIAVDDFGTGFSNFDRIWQIKPDIVKLDRSILERSLAASDAHRIVHHLVTMLHHAGTMVLAEGVENEDALQILMDADVDFVQGFCFGLPDPSLERARRAAPARIETAWQRFAERVKERRGDVVHPGFDTIERIVLAGAADYAQARDLRGAAQRLLTNPIVRRVFVAEANGEQVEPSVTNETPDTPSATTRRLAPLLPELHCNWSRRAYFQRAVAAPGRVALMGPHFSLTDGRDCYTAAVAIHLGTTLKVFCVDFDFSSYGDGQ | not soluble
16 | VVIPSPCCMFFVSKRIPENRVVSYQLSSRSTCLKAGVIFTTKKGQQSCGDPKQEWVQRYMKNLDAKQKKASPR | soluble
17 | METFKDRLVFLWKSEARQAKIASDIEMTIAGFSRIWNEGGLPKSETLKKIKQLKGCSIDWLLTGEGNPFPDEAPKKSLAYDTLGNEVDTDEFVFVPRYDIRAAAGYGQFVDHEEPVFTMAFRRHWIENYVTRDTKNLSVISVKGDSMEGVLNDGDSILVNHGENTPRDGLYVLRINENLLVKRLQIVPGGIINVISANEAYPAFEINLNDLTDDVEIIGRVEWFGRTI | not soluble
18 | MSLTEEQLLFRIALTHVKGVGSVLARQLLSAMGSPEAIFSDRKELVQRLPKAPRRLLDAIFSPSVMEEARRKLDQALKAGLNMYFITDDNYPYRLKECVDAPILLYSKGNVDLSPRRVLSIVGTRNITAYGRTATERIVSGLAETIPDLLIVSGLAYGVDVAAHKAALDNGLPTVAVLAHGLDRIYPSGHRSIAMEMLRNGGLLTDYPMGTEPERFNFVGRNRIVAGLSDATLVIESAEKGGSLITAGLAFGYNREVLALPGRATDSRSAGCNALIRDQKAALVSSAQDVLTLLDWSSTIDAKPQTEGHHHHHH | soluble
19 | MGSDKIHHHHHHMANQLILLKKDFFTDEQQAVTVADRYPQDVFAEHTHEFCELVMVWRGNGLHVLNERPYRITRGDLFYIRAEDKHSYTSVNDLVLQNIIYCPERLKLNVNWQAMIPGFQGAQWHPHWRLGSMGMNQARQVINQLEHESNGRDPLANEMAELLFGQLVMTLKRHRYATDDLPATSRETLLDKLITALANSLECPFALDAFCQQEQCSERVLRQQFRAQTGMTINQYLRQVRICHAQYLLQHSPLMISEISMQCGFEDSNYFSVVFTRETGMTPSQWRHLSNQSD | not soluble
20 | MSRTVMCRKYHEELPGLDRPPYPGAKGEDIYNNVSRKAWDEWQKHQTMLINERRLNMMNAEDRKFLQQEMDKFLSGEDYAKADGYVPPSA | soluble
21 | MTVTFYSYPKCGTCQKAKKWFEANDVAYEMIHIVENPPSKEDLRNLHEKSELPLKKFFNTSGMRYRELGLKDKLKDASEDEMYELLASDGMLIKRPIVTDGTNVTLGFNEEQFESVWKKYQ | not soluble
